According to patent publication EP4582447A1 (Quaerite Biopharm Research (Beijing) Co., Ltd., dated 2025):
Where a chain is given by its changes, count along the chain named. Where two headings read alike, the source gives them in different places.

What was measured:
[1] = target: T1, Human VEGFA165 (human, UniProt P15692-4 27-191); test: ELISA, VEGFA coated 0.3 µg/mL, anti-His detection
T1 construct: treated as the same molecule; also called antigen VEGFA

[2] = target: T1, Human VEGFA165; test: SPR Biacore 8K, VEGFA165 amine-coupled on CM5, nanobody as analyte, 1:1 model
[3] = target: T1, Human VEGFA165; test: SPR, VEGFA165 on CM5
[4] = target: T1, Human VEGFA165; test: competition ELISA on coated VEGFA, competitor VEGFR2-ECD-Fc 1 nM
[5] = target: 3% milk powder (negative control); test: phage ELISA, 3% milk powder coated (negative control), anti-M13(HRP)
[6] = target: T1, Human VEGFA165; test: phage ELISA, VEGFA coated 0.5 µg/mL, anti-M13(HRP)
[7] = target: T1, Human VEGFA165; test: ELISA, VEGFA coated 0.3 µg/mL, anti-His detection; remark: listed apart in the source
[8] = target: T1, Human VEGFA165; test: competition ELISA on coated VEGFA, competitor VEGFR2-ECD-Fc 1 nM; remark: listed apart in the source
[9] = target: T1, Human VEGFA165; test: competition ELISA on coated VEGFA, competitor VEGFR2-ECD-Fc 2 nM
[10] = target: T1, Human VEGFA165; test: phage ELISA, VEGFA coated 0.5 µg/mL, anti-M13(HRP)

T1 sequence (P15692 other isoform, or with tags, fused parts or gaps limits assumed): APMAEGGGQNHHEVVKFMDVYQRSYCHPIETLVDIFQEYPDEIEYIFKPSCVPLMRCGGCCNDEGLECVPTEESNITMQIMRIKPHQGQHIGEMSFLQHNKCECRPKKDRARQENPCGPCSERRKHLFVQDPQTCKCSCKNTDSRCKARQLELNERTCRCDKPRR

B1: V33 (VHH)
VHH: QLQLVESGGGSVQPGGSLRLSCEVSGRTFSSYTMGWFRQAPGKEREFVVAISKGGYKYDSVSLEARFTISKDNTKNTVYLQMNSLKPEDTAVYYCAATRAYGSSRLRLAKTYEYWGQGTQVTVSS
notes: Purified with C-terminal GGGGS-6×His
For B1, the EC50 [1] was 0.64 nM, the Kd [2] was 0.522 nM and the koff [2] was 0.000168 s⁻¹. The kon [2] was 323000 M⁻¹ s⁻¹, the “fold difference of KD from the positive control BI-VEGF ab” value (“fold difference of KD” below) [3] was < 3 fold and the IC50 [4] was 3.91 nM. The “Maximum inhibition rate (%)” value [4] was 96.3%, the OD450 [5] was 0.0489 OD450 and the OD450 [6] was 2.53 OD450.

B2: V36 (VHH)
VHH: B1 VHH with S30A, A97G, K110D
notes: as for B1
B2 was tested, and the EC50 [1] was 0.36 nM, the Kd [2] was 0.285 nM and the koff [2] was 0.00012 s⁻¹. For the same binder, the kon [2] was 419000 M⁻¹ s⁻¹, the “fold difference of KD” value [3] was < 3 fold and the IC50 [4] was 4.72 nM. The “Maximum inhibition rate (%)” value [4] was 96.3%, the OD450 [5] was 0.0623 OD450 and the OD450 [6] was 2.77 OD450.

B3: V40-3H-2m (VHH)
VHH: EVQLVESGGGLVQPGGSLRLSCAASGRTFSSYTMGWFRQAPGKEREFVVAISKGGYKYNAVSLEARFTISRDNSKNTVYLQMNSLRPEDTAVYYCAATRAYGSSRLRLAKTYEYWGQGTLVTVSS
notes: Humanized V40
In the case of B3, the EC50 [7] is reported as 1.64 nM.

B4: V40-3H-4m (VHH)
VHH: B3 VHH with S74A, A97S
notes: Humanized V40
B4 showed an EC50 [7] of 2.05 nM.

B5: V40-4H-2m (VHH)
VHH: B3 VHH with S30T
notes: Humanized V40
B5 was tested, and the EC50 [7] was 2.82 nM.

B6: V40-4H-4m (VHH)
VHH: B3 VHH with S30T, S74A, A97S
notes: Humanized V40
Work on B6 yielded an EC50 [7] of 2.34 nM.

B7: V41 (VHH)
VHH: B1 VHH with A97G
notes: as for B1
Binder B7 has an EC50 [1] of 0.57 nM, a Kd [2] of 0.482 nM and a koff [2] of 0.00016 s⁻¹. For the same binder, the kon [2] was 331000 M⁻¹ s⁻¹, the “fold difference of KD” value [3] was < 3 fold and the OD450 [5] was 0.0359 OD450. The OD450 [6] was 2.77 OD450.

B8: V43 (VHH)
VHH: B1 VHH with S30T, A97G, K110N
notes: as for B1
For B8, the EC50 [1] was 0.53 nM, the Kd [2] was 0.193 nM and the koff [2] was 8.09e-05 s⁻¹. The kon [2] was 418000 M⁻¹ s⁻¹, the “fold difference of KD” value [3] was < 3 fold and the IC50 [4] was 6 nM. For the same binder, the “Maximum inhibition rate (%)” value [4] was 93.7%, the OD450 [5] was 0.0519 OD450 and the OD450 [6] was 2.5 OD450.

B9: V43-1H-2m (VHH)
VHH: B3 VHH with N59D, A60S, K110N
notes: Humanized V43
In the case of B9, the IC50 [8] is reported as 5.99 nM and the “Maximum inhibition rate (%)” value [8] is reported as 94.5%.

B10: V43-1H-78 (VHH)
VHH: B3 VHH with N59D, A60S, P87A, K110N
notes: Humanized V43
For B10, the IC50 [8] was 5.62 nM and the “Maximum inhibition rate (%)” value [8] was 95.5%.

B11: V43-1H-87 (VHH)
VHH: B3 VHH with N59D, A60S, V78L, K110N
notes: Humanized V43
For B11, the IC50 [8] was 5.27 nM and the “Maximum inhibition rate (%)” value [8] was 95.4%.

B12: V43-3H-78 (VHH)
VHH: B3 VHH with S30T, N59D, A60S, P87A, A97G, K110N
notes: Humanized V43
B12 was tested, and the IC50 [8] was 8.63 nM and the “Maximum inhibition rate (%)” value [8] was 93.4%.

B13: V43-3H-87 (VHH)
VHH: B3 VHH with S30T, N59D, A60S, V78L, A97G, K110N
notes: Humanized V43
B13 was tested, and the IC50 [8] was 7.15 nM and the “Maximum inhibition rate (%)” value [8] was 91.6%.

B14: V43-4m (VHH)
VHH: B3 VHH with S30T, N59D, A60S, S74A, A97G, K110N
notes: Humanized V43
In the case of B14, the IC50 [9] is reported as 35.5 nM and the “Maximum inhibition rate (%)” value [9] is reported as 89.3%.

B15: V31 (VHH)
VHH: B1 VHH with S30A, S60A, A97G
notes: as for B1
B15 was tested, and the EC50 [1] was 0.67 nM, the Kd [2] was 0.62 nM and the koff [2] was 0.000172 s⁻¹. The kon [2] was 277000 M⁻¹ s⁻¹, the “fold difference of KD” value [3] was < 3 fold and the IC50 [4] was 2.07 nM. The “Maximum inhibition rate (%)” value [4] was 97.5%, the OD450 [5] was 0.0363 OD450 and the OD450 [6] was 2.67 OD450.

B16: V40 (VHH)
VHH: B1 VHH with S30T, D59N, S60A, A97G
notes: as for B1
Binder B16 has an EC50 [1] of 0.84 nM, a Kd [2] of 0.305 nM and a koff [2] of 0.000108 s⁻¹. The kon [2] was 353000 M⁻¹ s⁻¹, the “fold difference of KD” value [3] was < 3 fold and the IC50 [4] was 7.48 nM. For the same binder, the “Maximum inhibition rate (%)” value [4] was 92.2%, the OD450 [5] was 0.0362 OD450 and the EC50 [7] was 2.03 nM. It also gave an OD450 [6] of 3.11 OD450.

B17: V6 (VHH)
VHH: B1 VHH with S60T, A97G, R107K, K110D
B17 gave an OD450 [5] of 0.0473 OD450 and an OD450 [10] of 1.36 OD450.

B18: V8 (VHH)
VHH: B1 VHH with D59N, S60T, A97G, R107K, K110E
B18 showed an OD450 [5] of 0.0236 OD450 and an OD450 [10] of 0.924 OD450.
